Laboratory results from patent publication US6869925 (Amgen, dated 2005).

B1: human neutrophil elastase (protein)
chain: IVGGRRARPHAWPFMVSLQLRGGHFCGATLIAPNFVMSAAHCVANVNVRAVRVVLGAHNLSRREPTRQVFAVQRIFENGYDPVNLLNDIVILQLNGSATINANVQVAQLPAQGRRLGNGVQCLAMGWGLLGRNRGIASVLQELNVTVVTSLCRRSNVCTLVRGRQAGVCFGDSGSPLVCNGLIHGIASFVRGGCASGLYPDAFAPVAQFVNWIDSIIQ

Key:
[1] = molecular target: SLPI binding sites on U937 cells (human monocyte cell line; intact cells, PMA-induced cells or plasma membranes) (human); assay: competition with 125I-SLPI, U937 plasma membranes, Kd by Cheng-Prusoff
[2] = molecular target: SLPI binding sites on U937 cells (human monocyte cell line; intact cells, PMA-induced cells or plasma membranes) (human); assay: competition with 125I-SLPI, intact U937 cells, competitor at 2750 nM
[3] = molecular target: SLPI binding sites on U937 cells (human monocyte cell line; intact cells, PMA-induced cells or plasma membranes) (human); assay: competition with 125I-SLPI, intact U937 cells, competitor at 270 nM
[4] = molecular target: SLPI binding sites on U937 cells (human monocyte cell line; intact cells, PMA-induced cells or plasma membranes) (human); assay: competition with 125I-SLPI, U937 plasma membranes, competitor at 83.9 nM
[5] = molecular target: SLPI binding sites on U937 cells (human monocyte cell line; intact cells, PMA-induced cells or plasma membranes) (human); assay: competition with 125I-SLPI, intact U937 cells, competitor at 8.2 nM
[6] = molecular target: SLPI binding sites on U937 cells (human monocyte cell line; intact cells, PMA-induced cells or plasma membranes) (human); assay: competition with 125I-SLPI, intact U937 cells, competitor at 0.25 nM
[7] = molecular target: SLPI binding sites on U937 cells (human monocyte cell line; intact cells, PMA-induced cells or plasma membranes) (human); assay: competition with 125I-SLPI, U937 plasma membranes, competitor at 2.56 nM
[8] = molecular target: SLPI binding sites on HuT78 cells (human T cell line) (human); assay: competition with 125I-SLPI, intact HuT78 cells, competitor at 8.2 nM
[9] = molecular target: SLPI binding sites on U937 cells (human monocyte cell line; intact cells, PMA-induced cells or plasma membranes) (human); assay: competition with 125I-SLPI, intact U937 cells, competitor at 860 nM
[10] = molecular target: SLPI binding sites on U937 cells (human monocyte cell line; intact cells, PMA-induced cells or plasma membranes) (human); assay: competition with 125I-SLPI, U937 plasma membranes, competitor at 2750 nM
[11] = molecular target: SLPI binding sites on U937 cells (human monocyte cell line; intact cells, PMA-induced cells or plasma membranes) (human); assay: competition with 125I-SLPI, U937 plasma membranes, competitor at 268 nM
[12] = molecular target: SLPI binding sites on HuT78 cells (human T cell line) (human); assay: competition with 125I-SLPI, intact HuT78 cells, competitor at 0.80 nM
[13] = molecular target: SLPI binding sites on U937 cells (human monocyte cell line; intact cells, PMA-induced cells or plasma membranes) (human); assay: competition with 125I-SLPI, intact U937 cells, competitor at 26 nM
[14] = molecular target: SLPI binding sites on U937 cells (human monocyte cell line; intact cells, PMA-induced cells or plasma membranes) (human); assay: competition with 125I-SLPI, intact U937 cells, competitor at 0 nM
[15] = molecular target: SLPI binding sites on HuT78 cells (human T cell line) (human); assay: competition with 125I-SLPI, intact HuT78 cells, Kd by Cheng-Prusoff
[16] = molecular target: SLPI binding sites on U937 cells (human monocyte cell line; intact cells, PMA-induced cells or plasma membranes) (human); assay: competition with 125I-SLPI, intact U937 cells, competitor at 84 nM
[17] = molecular target: SLPI binding sites on U937 cells (human monocyte cell line; intact cells, PMA-induced cells or plasma membranes) (human); assay: competition with 125I-SLPI, intact U937 cells, competitor at 0.024 nM
[18] = molecular target: SLPI binding sites on HuT78 cells (human T cell line) (human); assay: competition with 125I-SLPI, intact HuT78 cells, competitor at 84 nM
[19] = molecular target: SLPI binding sites on HuT78 cells (human T cell line) (human); assay: competition with 125I-SLPI, intact HuT78 cells, competitor at 2.6 nM
[20] = molecular target: SLPI binding sites on U937 cells (human monocyte cell line; intact cells, PMA-induced cells or plasma membranes) (human); assay: competition with 125I-SLPI, intact U937 cells, competitor at 0.078 nM
[21] = molecular target: SLPI binding sites on HuT78 cells (human T cell line) (human); assay: competition with 125I-SLPI, intact HuT78 cells, competitor at 2750 nM
[22] = molecular target: SLPI binding sites on U937 cells (human monocyte cell line; intact cells, PMA-induced cells or plasma membranes) (human); assay: competition with 125I-SLPI, U937 plasma membranes, competitor at 0.800 nM
[23] = molecular target: SLPI binding sites on U937 cells (human monocyte cell line; intact cells, PMA-induced cells or plasma membranes) (human); assay: competition with 125I-SLPI, intact U937 cells, competitor at 0.80 nM
[24] = molecular target: SLPI binding sites on HuT78 cells (human T cell line) (human); assay: competition with 125I-SLPI, intact HuT78 cells, competitor at 0 nM
[25] = molecular target: SLPI binding sites on U937 cells (human monocyte cell line; intact cells, PMA-induced cells or plasma membranes) (human); assay: competition with 125I-SLPI, U937 plasma membranes, competitor at 0 nM
[26] = molecular target: SLPI binding sites on U937 cells (human monocyte cell line; intact cells, PMA-induced cells or plasma membranes) (human); assay: competition with 125I-SLPI, U937 plasma membranes, competitor at 8.20 nM
[27] = molecular target: SLPI binding sites on U937 cells (human monocyte cell line; intact cells, PMA-induced cells or plasma membranes) (human); assay: competition with 125I-SLPI, intact U937 cells, Kd by Cheng-Prusoff
[28] = molecular target: SLPI binding sites on U937 cells (human monocyte cell line; intact cells, PMA-induced cells or plasma membranes) (human); assay: competition with 125I-SLPI, intact U937 cells, competitor at 2.6 nM
[29] = molecular target: HIV-1 envelope protein gp120

Molecule | Kd [1] | % *SLPI BOUND [2] | CPM *SLPI BOUND [4] | % *SLPI BOUND [5] | CPM *SLPI BOUND [7] | % *SLPI BOUND [8] | CPM *SLPI BOUND [10] | CPM *SLPI BOUND [11] | % *SLPI BOUND [12] | % *SLPI BOUND [14] | Kd [15] | % *SLPI BOUND [16] | % *SLPI BOUND [18] | % *SLPI BOUND [19] | % *SLPI BOUND [21] | CPM *SLPI BOUND [22] | % *SLPI BOUND [23] | % *SLPI BOUND [24] | CPM *SLPI BOUND [25] | CPM *SLPI BOUND [26] | other results
HIV-1 envelope protein gp120 | 0.4 µM |  |  |  |  |  |  |  |  |  |  |  |  |  |  |  |  |  |  |  | 
SLPI mutein Gly 20 (from UniProt P03973 26-132) | 0.005 µM | 5% | 2490 cpm | 49% | 11400 cpm | 103% | 1500 cpm | 1620 cpm | 109% | 130% | 0.013 µM | 11% | 50% | 91% | 7% | 14900 cpm | 91% | 100% | 18700 cpm | 7400 cpm | % *SLPI BOUND [3]: 6%; % *SLPI BOUND [6]: 110%; % *SLPI BOUND [9]: 5%; % *SLPI BOUND [13]: 28%; % *SLPI BOUND [17]: 110%; % *SLPI BOUND [20]: 117%; Kd [27]: 0.0035 µM
SLPI mutein Lys 72 (from UniProt P03973 26-132) | 0.005 µM | 4% | 3500 cpm | 39% | 12200 cpm | 116% | 5010 cpm | 3240 cpm | 105% | 117% | 0.2 µM | 10% | 86% | 118% | 34% | 14200 cpm | 86% | 100% | 18700 cpm | 7620 cpm | % *SLPI BOUND [3]: 6%; % *SLPI BOUND [6]: 103%; % *SLPI BOUND [9]: 5%; % *SLPI BOUND [28]: 71%; % *SLPI BOUND [13]: 21%; % *SLPI BOUND [17]: 116%; % *SLPI BOUND [20]: 113%; Kd [27]: 0.0025 µM
SLPI mutein Val 72 (from UniProt P03973 26-132) | 0.019 µM | 8% | 3380 cpm | 78% | 11600 cpm | 81% | 923 cpm | 1740 cpm | 93% | 95% | 0.009 µM | 48% | 43% | 96% | 14% | 14000 cpm | 90% | 100% | 18700 cpm | 9240 cpm | % *SLPI BOUND [28]: 80%; Kd [27]: 0.03 µM
alpha-1 protease inhibitor (from UniProt P01009 25-418) | 1 µM |  |  |  |  |  |  |  |  |  |  |  |  |  |  |  |  |  |  |  | 
bFGF (from UniProt P09038 143-288) (ligand) |  |  | 15000 cpm |  | 13500 cpm |  | 14700 cpm | 14400 cpm |  |  |  |  |  |  |  | 14000 cpm |  |  | 18700 cpm | 14500 cpm | 
lysozyme (enzyme) |  |  | 15500 cpm |  | 14700 cpm |  | 15900 cpm | 14900 cpm |  |  |  |  |  |  |  | 15200 cpm |  |  | 18700 cpm | 15000 cpm | 
B1 |  |  |  |  |  |  |  |  |  |  |  |  |  |  |  |  |  |  |  |  | proteolytic cleavage of gp120 (Western blot, reducing SDS-PAGE) [29]: Incubation at 37° for 30 min, with 10 nM HNE yielded primarily 2 bands on Western blot
